From US20250382359A1 (BYOMASS, published 2025)

Assays:
[1] = target: T1, Human BMP9 (human, UniProt Q9UK05 320-429); assay: BLI Octet; IgG on sensor
T1 sequence (looked up): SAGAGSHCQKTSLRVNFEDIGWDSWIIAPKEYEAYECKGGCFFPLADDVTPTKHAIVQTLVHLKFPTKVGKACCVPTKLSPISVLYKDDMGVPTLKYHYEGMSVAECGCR

[2] = target: T2, GDF11 (UniProt O95390 299-407); assay: BLI Octet; IgG on sensor
T2 construct: Also used as ligand in the Activin 2B receptor/SMAD reporter assay

[3] = target: T3, GDNF (UniProt P39905 78-211); assay: BLI Octet; IgG on sensor
T3 sequence (looked up): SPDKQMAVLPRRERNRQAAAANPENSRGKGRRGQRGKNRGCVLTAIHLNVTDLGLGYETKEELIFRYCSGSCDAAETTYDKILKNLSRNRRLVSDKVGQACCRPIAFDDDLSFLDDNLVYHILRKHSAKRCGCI

[4] = target: GDF8 (UniProt O14793 267-375); assay: BLI Octet; IgG on sensor
[5] = target: T4, Human Activin A Fc (human, UniProt P08476 311-426); assay: BLI Octet; IgG on sensor
T4 construct: not shown: Fc part
T4 sequence (looked up): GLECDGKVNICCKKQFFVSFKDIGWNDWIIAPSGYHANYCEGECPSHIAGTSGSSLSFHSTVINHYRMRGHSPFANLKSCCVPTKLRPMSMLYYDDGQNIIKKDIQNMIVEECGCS

[6] = target: T5, Human BMP10 (human, UniProt O95393 317-424); assay: BLI Octet; IgG on sensor
T5 sequence (looked up): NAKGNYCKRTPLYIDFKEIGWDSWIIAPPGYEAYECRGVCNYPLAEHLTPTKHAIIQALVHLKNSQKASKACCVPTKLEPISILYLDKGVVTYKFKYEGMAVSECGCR

[7] = target: T6, GDF10 (UniProt P55107 369-478); assay: BLI Octet; IgG on sensor
T6 sequence (looked up): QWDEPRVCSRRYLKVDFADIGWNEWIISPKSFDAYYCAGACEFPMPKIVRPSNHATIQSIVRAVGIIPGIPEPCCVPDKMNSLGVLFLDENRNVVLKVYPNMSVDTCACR

[8] = target: T7, Human Activin B (human, UniProt P09529 293-407); assay: BLI Octet; IgG on sensor
T7 sequence (looked up): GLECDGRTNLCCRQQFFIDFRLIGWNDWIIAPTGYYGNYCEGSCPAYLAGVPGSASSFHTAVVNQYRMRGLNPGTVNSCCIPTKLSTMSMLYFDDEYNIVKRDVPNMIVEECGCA

[9] = target: T8, GDF15 (ligand used in the GFRAL/RET cell assays) (UniProt Q99988 197-308, limits assumed); assay: cell-based or functional assay
T8 sequence (looked up): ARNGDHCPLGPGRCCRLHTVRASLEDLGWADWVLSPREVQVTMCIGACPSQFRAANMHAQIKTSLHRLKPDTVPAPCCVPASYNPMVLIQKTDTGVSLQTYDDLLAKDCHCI

[10] = target: T9, Human GDF15 Fc (human, UniProt Q99988 195-308, limits assumed, biotinylated (EZ-Link Sulfo-NHS-Biotinylation Kit) in the SPR assay); assay: BLI Octet; IgG on sensor, 100 nM antigen (avid)
T9 construct: also called human GDF15-Fc fusion; biotinylated Human GDF15 Fc; not shown: Fc part
T9 sequence: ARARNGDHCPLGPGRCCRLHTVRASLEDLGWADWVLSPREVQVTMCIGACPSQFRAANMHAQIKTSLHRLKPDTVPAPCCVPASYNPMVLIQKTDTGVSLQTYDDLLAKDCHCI
Description: Briefly, ForteBio affinity measurements were performed by loading IgGs on-line onto AHC sensors. Sensors were equilibrated off-line in assay buffer for 30 min and then monitored on-line for 60 seconds for baseline establishment. Sensors with loaded IgGs were exposed to 100 nM antigen for 3 minutes, and afterwards were transferred to assay buffer for 3 min for off-rate measurement. All kinetics were analyzed using the 1:1 binding model.

[11] = target: T9, Human GDF15 Fc; assay: BLI Octet; antigen on sensor, 100 nM Fab (monovalent)
[12] = target: T10, Cyno GDF15 Fc (cyno, UniProt G7PWZ3 193-308, limits assumed); assay: as above
T10 construct: also called cyno GDF15-Fc fusion; not shown: Fc part
T10 sequence: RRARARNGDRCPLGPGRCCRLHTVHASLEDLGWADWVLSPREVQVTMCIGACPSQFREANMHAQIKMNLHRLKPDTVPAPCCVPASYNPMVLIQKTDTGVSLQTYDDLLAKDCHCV

[13] = target: T9, Human GDF15 Fc; assay: SPR Biacore 8K; biotinylated antigen captured, Fab analyte
Description: Kinetic analysis was conducted at 25° C. in HBS-EP+running buffer (10 mM HEPES pH 7.4, 150 mM NaCl, 3 mM EDTA, 0.05% Surfactant P20) using a Biacore 8K optical biosensor (Cytiva, Marlborough, MA). The sample compartment was maintained at 10° C. for the duration of the experiment. The Biacore 8K can analyze up to 8 separate interactions in a single cycle.
Each experiment cycle began with an injection (300 s at 2 μL/min) overflow cells 1 and 2 of a 1:100 solution of biotin CAPture reagent (Cytiva) in running buffer. This was followed by an injection (45 s at 10.0 μL/min) of biotinylated human GDF15 (5 nM) overflow cell 2. […] The dissociation of the antibodies were monitored for 3420 s. Finally, an injection (120 s at 10 μL/min) of regeneration solution (6 M Guanidine-HCl in 0.25 M NaOH) overflow cells 1 and 2 prepared the sensor surface for another cycle. Several blank buffer samples were injected (300 s at 30 μL/min) overflow cells 1 and 2 throughout the duration of the experiment and used for reference surface subtraction—each were monitored for the same amount of dissociation time (3420 s) and regenerated under the same conditions as those for the Fab sample injections.

T2 sequence (O95390 299-407 limits assumed): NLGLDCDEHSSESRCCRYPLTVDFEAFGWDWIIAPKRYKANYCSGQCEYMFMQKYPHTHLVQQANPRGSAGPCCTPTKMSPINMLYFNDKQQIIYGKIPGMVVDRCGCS

Binder | binding result [1] | binding result [2] | binding result [3] | binding result [4] | binding result [5] | binding result [6] | binding result [7] | binding result [8] | GDF15-GFRAL RET pERK IC50 (pM) [9] [pM] | GDF15-GFRAL-RET Luciferase IC50 (pM) [9] [pM] | Kd [10] [pM] | GDF15 GFRAL RET pERK Fab IC50 pM [9] [pM] | Kd [11] [pM] | Kd [12] [pM] | Kd [13] [pM] | koff [13] [s⁻¹] | kon [13] [M⁻¹ s⁻¹]
GDF15 antibody agent Clone E, IgG (antibody, V domains shown) VH: QVQLVQSGAEVKKPGASVKVSCKASGYTFTSYGINWVRQAPGQGLEWMGWITAYSGDTNYAQKLQGRVTMTTDTSTSTAYMELRSLRSDDTAVYYCARGPGQYADVDVWGQGTMVTVSS VL: DIQMTQSPSSVSASVGDRVTITCRASQGISSWLAWYQQKPGKAPKLLIYAASSLQSGVPSRFSGSGSGTDFTLTISSLQPEDFATYYCQQANSFPITFGGGTKVEIKR | no binding (tested: 100 nM) | no binding (tested: 100 nM) | no binding (tested: 100 nM) | no binding (tested: 100 nM) | no binding (tested: 100 nM) | no binding (tested: 100 nM) | no binding (tested: 100 nM) | no binding (tested: 100 nM) | 35 | 190 | 278 | – | – | – | – | – | –
GDF15 antibody agent Clone S, IgG (antibody, V domains shown) VH: QVQLVQSGAEVKKPGASVKVSCKASGYTFTSYGINWVRQAPGQGLEWMGWITAYSGDTNYAQKLQGRVTMTTDTSTSTAYMELRSLRSDDTAVYYCARGPGQYADVDVWGQGTMVTVSS VL: DIQLTQSPSSVSASVGDRVTITCRASQGISPWLAWYQQKPGKAPKLLIYAASSLQSGVPSRFSGSGSGTDFTLTISSLQPEDFATYYCQQANSFPITFGGGTKVEIKR | no binding (tested: 100 nM) | no binding (tested: 100 nM) | no binding (tested: 100 nM) | no binding (tested: 100 nM) | no binding (tested: 100 nM) | no binding (tested: 100 nM) | no binding (tested: 100 nM) | no binding (tested: 100 nM) | – | – | – | – | – | – | – | – | –
GDF15 antibody agent Clone T, IgG (antibody, V domains shown) VH: QVQLVQSGAEVKKPGASVKVSCKASGYTFTSYGINWVRQAPGQGLEWMGWITAYSGDTNYAQKLQGRVTMTTDTSTSTAYMELRSLRSDDTAVYYCARGPGQYADVDVWGQGTMVTVSS VL: DIQMTQSPSSVSASVGDRVTITCRASQGISSWLAWYQQKPGKAPKLLIYAASSLQSGVPSRFSGSGSGTDFTLTISSLQPEDFATYYCQQASQFPITFGGGTKVEIKR | no binding (tested: 100 nM) | no binding (tested: 100 nM) | no binding (tested: 100 nM) | no binding (tested: 100 nM) | no binding (tested: 100 nM) | no binding (tested: 100 nM) | no binding (tested: 100 nM) | no binding (tested: 100 nM) | – | – | – | – | – | – | – | – | –
GDF15 antibody agent Clone J, Fab (Fab, V domains shown, Fab; CH1 and CL of the Fab not specified; also called Fab of Clone J) VH: QVQLVQSGAEVKKPGASVKVSCKASGYTFTSYGINWVRQAPGQGLEWMGWIDAYSGSTNYAQKLQGRVTMTTDTSTSTAYMELRSLRSDDTAVYYCARGPGQYADVDVWGQGTMVTVSS VL: DIQMTQSPSSVSASVGDRVTITCRASQGISSWLAWYQQKPGKAPKLLIYAASSLQSGVPSRFSGSGSGTDFTLTISSLQPEDFATYYCQQANSFPITFGGGTKVEIK | – | – | – | – | – | – | – | – | – | – | – | 75.1 | 1280 | 769 | 88.4 | 0.000404 | 4.57e+06
GDF15 antibody agent Clone H, IgG (antibody, V domains shown) VH: QVQLVQSGAEVKKPGSSVKVSCKASGGTFSSYYISWVRQAPGQGLEWMGGIAPISGTASYAQKFQGRVTITADESTSTAYMELSSLRSEDTAVYYCARGLAYDGYFDLWGRGTLVTVSS VL: not shown | no binding (tested: 100 nM) | no binding (tested: 100 nM) | no binding (tested: 100 nM) | no binding (tested: 100 nM) | no binding (tested: 100 nM) | no binding (tested: 100 nM) | no binding (tested: 100 nM) | no binding (tested: 100 nM) | 254 | 200 | 235 | – | – | – | – | – | –
GDF15 antibody agent Clone O, IgG (antibody, V domains shown) VH: QVQLVQSGAEVKKPGATVKVSCKASGYTFDSLGMSWVRQAPGQGLEWMGYISTYSGDTVYAQKLQGRVTMTTDTSTSTAYMELRSLRSDDTAVYYCARESGQQVSALDPWGQGTLVTVSS VL: DIQMTQSPSSVSASVGDRVTITCRASQGISRWLAWYQQKPGKAPKLLIYAASSLQSGVPSRFSGSGSGTDFTLTISSLQPEDFATYYCQQGASFPLTFGGGTKVEIKR | no binding (tested: 100 nM) | no binding (tested: 100 nM) | no binding (tested: 100 nM) | no binding (tested: 100 nM) | no binding (tested: 100 nM) | no binding (tested: 100 nM) | – | no binding (tested: 100 nM) | – | 150 | 279 | – | – | – | – | – | –
GDF15 antibody agent Clone P, IgG (antibody, V domains shown) VH: QVQLVQSGAEVKKPGATVKVSCKASGYTFDSYGIHWVRQAPGQGLEWMGWITAYSGDTVYAQKLQGRVTMTTDTSTSTAYMELRSLRSDDTAVYYCARESGQTSSALGPWGQGTLVTVSS VL: DIQMTQSPSSVSASVGDRVTITCRASQGISRWLAWYQQKPGKAPKLLIYAASSLQSGVPSRFSGSGSGTDFTLTISSLQPEDFATYYCQQGASFPLTFGGGTKVEIKR | no binding (tested: 100 nM) | no binding (tested: 100 nM) | – | no binding (tested: 100 nM) | no binding (tested: 100 nM) | no binding (tested: 100 nM) | no binding (tested: 100 nM) | no binding (tested: 100 nM) | 35.6 | – | 274 | – | – | – | – | – | –
